Assay results: patent US20160097044A1, “Antimicrobial Enzyme Fusions Reduce Resistance and Kill Intracellular Staphylococcus aureus” (The United States of America, as Represented by the …, priority 2014, published 2016)

How the values were obtained:
NRS 271 = assay: Minimum Inhibitory Concentration (MIC) assay; type: cell-based, S. aureus
Protocol: (§1) The Minimum Inhibitory Concentrations (MIC) of each protein for multiple S. aureus strains was determined as previously described (Jones et al. 1985. In: Manual of Clinical Microbiology, Eds. Balows et al. American Society of Microbiology, Washington D.C., pp. 972-977) with the following modifications. Enzymes were serially diluted two fold across a 96 well plate, such that after dilution, 50 μl of the enzyme solution in 300 mM NaCl, 50 mM NaH2PO4, 30% glycerol pH 7.5, remained in each well. To each well was added 50 μl of TSB and 100 μl of S. aureus Newman in TSB (diluted to 5×10^6 cells/ml). The plates were incubated 20 h at 37° C. and read with a 96 well plate reader. MIC determination values were reported as the median of ≧4 replicates (Table 1).

NRS 194 = assay: Minimum Inhibitory Concentration (MIC) assay; type: cell-based, S. aureus
Protocol: as §1

USA 500 (NRS 385) = assay: Minimum Inhibitory Concentration (MIC) assay; type: cell-based, S. aureus
Protocol: as §1

Sanger 252 (NRS 71) = assay: Minimum Inhibitory Concentration (MIC) assay; type: cell-based, S. aureus
Protocol: as §1

NRS 193 = assay: Minimum Inhibitory Concentration (MIC) assay; type: cell-based, S. aureus
Protocol: as §1

NRS 192 = assay: Minimum Inhibitory Concentration (MIC) assay; type: cell-based, S. aureus
Protocol: as §1

USA 200 (NRS 383) = assay: Minimum Inhibitory Concentration (MIC) assay; type: cell-based, S. aureus
Protocol: as §1

NRS 209 = assay: Minimum Inhibitory Concentration (MIC) assay; type: cell-based, S. aureus
Protocol: as §1

S. simulans MP03 = assay: Minimum Inhibitory Concentration (MIC) assay; type: cell-based, Staphylococcus simulans; conditions: Mastitis isolate S. simulans MP03
S. chromogenes MP02 = assay: Minimum Inhibitory Concentration (MIC) assay; type: cell-based, Staphylococcus chromogenes; conditions: Mastitis isolate S. chromogenes MP02
S. warneri MP06 = assay: Minimum Inhibitory Concentration (MIC) assay; type: cell-based, Staphylococcus warneri; conditions: Mastitis isolate S. warneri MP06
S. hyicus MP01 = assay: Minimum Inhibitory Concentration (MIC) assay; type: cell-based, Staphylococcus hyicus; conditions: Mastitis isolate S. hyicus MP01
S. aureus strain Newman = type: cell-based; conditions: tenth round compared to first exposure
Protocol: For the MIC repeated exposure method, MIC determinations were performed with S. aureus strain Newman. 100 μl of S. aureus strain Newman culture that survived at ½ the MIC (the first well with visible growth) for each round was inoculated into 5 ml TSB and cultivated to mid-log phase growth. This culture was used as the inoculum for the next round of MIC exposure (overnight growth), and the cycle was repeated for 10 rounds.
Development of resistance to the triple-acting fusion enzymes was tested on S. aureus strain Newman and compared to both parental enzymes applied individually or simultaneously. […] Survivors of the ten round exposure to peptidoglycan hydrolase were passaged five times in medium with no peptidoglycan hydrolase added. […] We compared our triple-acting fusions to small molecule antibiotics in similar assays.

S. aureus Newman = assay: Minimum Inhibitory Concentration (MIC) assay; type: cell-based
Protocol: as §1

S. aureus Newbould 305 = assay: Minimum Inhibitory Concentration (MIC) assay; type: cell-based; conditions: Mastitis isolate S. aureus Newbould 305
Protocol: as §1

S. aureus ALR = assay: Minimum Inhibitory Concentration (MIC) assay; type: cell-based
Protocol: as §1

S. aureus SA113 biofilms = assay: Static biofilm reduction model; type: cell-based; conditions: 1 h treatment, compared to buffer treated biofilms
Protocol: S. aureus SA113 biofilms were treated for 1 h with 100 μl of each enzyme individually or as equimolar mixtures of LysK and lysostaphin (white bars) in 300 mM NaCl, 50 mM NaH2PO4, 30% glycerol. Constructs are named as in FIG. 1a. Results are reported as the percentage reduction in biofilm compared to buffer treated biofilms. Data presented represents 4 replicates. Values represent means±[…]. Asterisks indicate significant differences (single factor ANOVA with t-test post hoc analysis Sidák correction) as compared to LysK (K) at that concentration. Adjusted alpha p<0.026. Peptidoglycan hydrolase constructs: lysostaphin (L), LysK (K), triple fusion K-L, and triple fusion (L-K), as named in FIG. 1a.
In the static biofilm reduction model, biofilms were produced as previously described (Gross et al. 2001. Infect. Immun. 69:3423-3426) with the following modifications. S. aureus strains were grown overnight in 5 ml TSB supplemented with 0.25% D(+)-glucose without shaking at 37° C. The culture was diluted 1/200 in fresh culture medium, and 200 μl was added to each well of a 96 well microtiter plate and incubated without shaking for 24 h at 37° C. Biofilms in the wells were washed twice with 200 μl SLB, treated with […] peptidoglycan hydrolase (Lysostaphin, LysK and the triple fusion proteins K-L and L-K) in SLB at concentrations indicated (FIG. 4) for 1 h at room temperature, and washed twice with 100 μl SLB. Adherent bacteria were fixed with 200 μl 95% ethanol-5% glacial acetic acid for 20 min, washed once with water, and stained with 100 μl 0.4% crystal violet for 15 min at room temperature. Excess stain was removed with 3 water washes. Bound stain was resolubilized in 33% acetic acid, and 20 μl was transferred to a 96 well plate containing 180 μl water. The OD590nm was determined in a Spectra Max plate reader. Percent reduction represents the difference in absorbance between biofilms exposed to buffer only and experimental wells that were exposed to the peptidoglycan hydrolases.
Static biofilms were created with S. aureus strain SA113 in 96 well dishes and treated for one hour with 100 μl of the indicated concentrations of each enzyme individually or as an equimolar mixture of LysK and lysostaphin.

S. xylosus MP05 = assay: Minimum Inhibitory Concentration (MIC) assay; type: cell-based, Staphylococcus xylosus; conditions: Mastitis isolate S. xylosus MP05

B1: L-K: LysK lytic domains inserted between lysostaphin's M23 endopeptidase domain and SH3b cell wall binding domain; SEQ ID NO:7, protein SEQ ID NO:8 (protein)
chain: MAATHEHSAQWLNNYKKGYGYGPYPLGINGGMHYGVDFFMNIGTPVKAISSGKIVEAGWSNYGGGNQIGLIENDGVHRQWYMHLSKYNVKVGDYVKAGQIIGWSGSTGYSTAPHLHFQRMVNSFSNSTAQDPMPFLKSAGYGKAGGTVTPTPNTGLDAKTQAEINKRLDAYAKGTVDSPYRVKKATSYDPSFGVMEAGAIDADGYYHAQCQDLITDYVLWLTDNKVRTWGNAKDQIKQSYGTGFKIHENKPSTVPKKGWIAVFTSGSYEQWGHIGIVYDGGNTSTFTILEQNWNGYANKKPTKRVDNYYGLTHFIEIPVKAGTTVKKETAKKSASKTPAPKKKATLKVSKNHINYTMDKRGKKPEGMVIHNDAGRSSGQQYENSLANAGYARYANGIAHYYGSEGYVWEAIDAKNQIAWHTGDGTGANSGNFRFAGIEVCQSMSASDAQFLKNEQAVFQFTAEKFKEWGLTPNRKTVRLHMEFVPTACPHRSMVLHTGFNPVTQGRPSQAIMNKLKDYFIKQIKNYMDKGTSSSTVVKDGKTSSASLDTVTPTPNTGWKTNKYGTLYKSESASFTPNTDIITRTTGPFRSMPQSGVLKAGQTIHYDEVMKQDGHVWVGYTGNSGQRIYLPVRTWNKSTNTLGVLWGTIKLEHHHHHH
modifications: Staphylococcus simulans & Phage K
NRS 271
  Minimum Inhibitory Conc. (median μg/ml): 9.8 µg/mL
NRS 194
  Minimum Inhibitory Conc. (median μg/ml): 12 µg/mL
USA 500 (NRS 385)
  Minimum Inhibitory Conc. (median μg/ml): 12 µg/mL
Sanger 252 (NRS 71)
  Minimum Inhibitory Conc. (median μg/ml): 6.8 µg/mL
NRS 193
  Minimum Inhibitory Conc. (median μg/ml): 12 µg/mL
NRS 192
  Minimum Inhibitory Conc. (median μg/ml): 16 µg/mL
USA 200 (NRS 383)
  Minimum Inhibitory Conc. (median μg/ml): 5.9 µg/mL
NRS 209
  Minimum Inhibitory Conc. (median μg/ml): 12 µg/mL
S. simulans MP03
  Minimum Inhibitory Conc. (median μg/ml): 5.9 µg/mL
S. chromogenes MP02
  Minimum Inhibitory Conc. (median μg/ml): 0.37 µg/mL
S. warneri MP06
  Minimum Inhibitory Conc. (median μg/ml): 1.5 µg/mL
S. hyicus MP01
  Minimum Inhibitory Conc. (median μg/ml): 0.37 µg/mL
S. aureus strain Newman
  increase in MIC after 10 rounds of sub-lethal exposure: 2 fold
S. aureus Newman; S. aureus Newman
  Minimum Inhibitory Conc. (median μg/ml): 7.8 µg/mL
S. aureus Newman; first exposure of the resistance development experiment, FIG. 1b
  First exposure MIC: 7.8 µg/mL
S. aureus Newman; first exposure, molar concentration in brackets
  First exposure MIC: 0.107 µM
S. aureus Newbould 305
  Minimum Inhibitory Conc. (median μg/ml): 12 µg/mL
S. aureus ALR; N=8, value ± spread
  MIC for S. aureus ALR (comparison for post-treatment isolates): 9.4 ± 6.1 µg/mL
S. aureus ALR; S. aureus ALR
  Minimum Inhibitory Conc. (median μg/ml): 4.4 µg/mL
S. aureus SA113 biofilms
  static biofilm reduction (in words): effectively reduced staphylococcal biofilms
S. xylosus MP05
  Minimum Inhibitory Conc. (median μg/ml): 4.0 µg/mL
